Reference: article PMC9784577, “Cross-Feeding and Enzymatic Catabolism for Mannan-Oligosaccharide Utilization by the Butyrate-Producing Gut Bacterium Roseburia hominis A2-183” (Microorganisms, 2022)

How the values were obtained:
[1] = biological target: β-1,4 mannan-oligosaccharide phosphorylase RhMOP130A (Roseburia hominis A2-183); assay: native gel or EMSA; native-PAGE on 4-15% Mini-PROTEAN TGX precast gels, 30 min at 150 V, Native PAGE marker; size of the oligomer from the band's apparent mass against the monomer's mass
[2] = biological target: α-galactosidase RhGal36A (Roseburia hominis A2-183); assay: as above

Row | stoichiometry N [1] | stoichiometry N [2] | Substance
1 | 6 | – | β-1,4 mannan-oligosaccharide phosphorylase RhMOP130A (enzyme)
2 | – | 4 | α-galactosidase RhGal36A (enzyme)
